From patent publication US20120301493A1 (UNIVERSIDADE DE SANTIAGO DE COMPOSTELA, published 2012)

B1: muNS (1-380)-HA (other)
chain: MASTKWGDKPMSVSMSHDGSSIRSAASQFLSGPLFHSTPIPPQRKTVLLKFMIGDELVTVQGALAPFDEYWYDNQPLLAQAVEMLASADRLRQFEHYEKFLLKKGHQITEIMNRLRLFFTDVLKVKMEADALPALAQYLMVGTLEAVSTADSPDACVPVTSKILAKQQTIAKSPGRLDEEEYNVIRSRFLTHEVFDLTSDLPGVQPFMDMYYATVPRADSTGWCVYRRKGLLIHAPDEQFSDLTIFSTRLTASRELQLVAGDVAVACFDLMDVSDIAPSHHASVQEERTLGTSRYSNVTANDHPLVFFSPSALRWAIDHACTDSLVSTRNIRVCVGIDPLVTRWTRDGVQEAAILMDDKLPSAGRARMALRTLLLARRSP
B2: muNS (1-154)-HA (other)
chain: MASTKWGDKPMSVSMSHDGSSIRSAASQFLSGPLFHSTPIPPQRKTVLLKFMIGDELVTVQGALAPFDEYWYDNQPLLAQAVEMLASADRLRQFEHYEKFLLKKGHQITEIMNRLRLFFTDVLKVKMEADALPALAQYLMVGTLEAVSTADSPD
B3: muNS (1-448)-HA (other)
chain: MASTKWGDKPMSVSMSHDGSSIRSAASQFLSGPLFHSTPIPPQRKTVLLKFMIGDELVTVQGALAPFDEYWYDNQPLLAQAVEMLASADRLRQFEHYEKFLLKKGHQITEIMNRLRLFFTDVLKVKMEADALPALAQYLMVGTLEAVSTADSPDACVPVTSKILAKQQTIAKSPGRLDEEEYNVIRSRFLTHEVFDLTSDLPGVQPFMDMYYATVPRADSTGWCVYRRKGLLIHAPDEQFSDLTIFSTRLTASRELQLVAGDVAVACFDLMDVSDIAPSHHASVQEERTLGTSRYSNVTANDHPLVFFSPSALRWAIDHACTDSLVSTRNIRVCVGIDPLVTRWTRDGVQEAAILMDDKLPSAGRARMALRTLLLARRSPMTSFLLGALKQSGGQLMEHYRCDAANRYGSPTVPVSHSPPCSKCPELKEQITKLSSSPLPKIDSNVGP
notes: also called N-terminus domain (muNS(1-448)); N-terminus region

What follows are binders tested against muNS-Mi, region 448-635 of avian reovirus S1133 muNS protein (avian Orthoreovirus (avian reovirus …)) (assay: co-expression with muNS-Mi in CEF cells, anti-HA immunofluorescence).
B1: no binding. B2: no binding. B3: no binding.
